Like-named read-outs stand apart in the source and are kept apart here.
What was measured:
[1] = biological target: HLA-E/… (V-0025, HLA-G signal peptide) complex on cells (human) (UniProt P13747); assay: flow cytometry, K562.E +V-0025, column 0 µg/mL +mIgG1
[2] = biological target: HLA-E on cells that do not present the HLA-G signal peptide (unpulsed K562.E cells; HLA-E positive, HLA-G negative cells; Tap-1 knock-out cells) (human) (UniProt P13747); assay: flow cytometry, K562.E, column 0 µg/mL +mIgG1
[3] = biological target: V-0025 (…, HLA-G signal peptide)/HLA-E*0103 monomer complex (human); assay: ELISA, V-0025 at 0.25 µg/mL, antibody titrated from 2 µg/mL to 3.8 pg/mL
[4] = biological target: T1, V-0034 (…) pulsed on K562 cells expressing HLA-E (human, UniProt P13747 22-358; P61769 21-119); assay: flow cytometry, ABX0011 staining with Fc block, K562.E cells pulsed with 20 ug/mL peptide for 2hr
[5] = biological target: T2, P-0550 (…, PODXL2) pulsed on K562 cells expressing HLA-E (human, UniProt P13747 22-358; P61769 21-119); assay: as above
[6] = biological target: T3, HLA-E/… (V-0025, HLA-G signal peptide) complex on cells (human, UniProt P13747 22-358; P61769 21-119); assay: as above
T3 construct: also called K562.E + V-0025; V-0025 peptide pulsed K562 cells expressing HLA-E

[7] = biological target: V-0034 (…)/HLA-E 01:03 monomer complex (human); assay: ELISA, monomers on a neutravidin plate
[8] = biological target: V-0037 (…)/HLA-E 01:03 monomer complex (human); assay: ELISA, monomers on a neutravidin plate
[9] = biological target: V-0043 (…)/HLA-E 01:03 monomer complex (human); assay: ELISA, monomers on a neutravidin plate
peptide-empty HLA-E = peptide-empty HLA-E (human); assay: ELISA, ABX0011 in mouse serum, HLA-E 01:03 monomers
[10] = biological target: T4, HLA-G on cell lines that express HLA-G but not HLA-E (human, UniProt P17693 25-338); assay: flow cytometry, IFNγ-stimulated JEG3 HLA-E knock-out
T4 construct: whole, on cells

[11] = biological target: T5, V-0025 (…, HLA-G signal peptide)/HLA-E*0103 monomer complex (human); assay: ELISA, V-0025 at 0.25 µg/mL, antibody titrated from 2 µg/mL to 3.8 pg/mL
T5 construct: also called ABI-V-0025; 0025-E 01:03 monomer complex

[12] = biological target: T5, V-0025 (…, HLA-G signal …); assay: label-free ResoSens instrument; ABX0011 captured by anti-IgG-Fc, monomer complex in serial dilutions from 5 µg/ml; monovalent
[13] = biological target: V-0040 (…)/HLA-E 01:03 monomer complex (human); assay: ELISA, monomer at 0.25 ug/ml on neutravidin plate (FIG. 9B)
[14] = biological target: V-0044 (…)/HLA-E 01:03 monomer complex (human); assay: as above
[15] = biological target: P-0550 (…, PODXL2)/HLA-E 01:03 monomer complex (human); assay: as above
[16] = biological target: V-0035 (…)/HLA-E 01:03 monomer complex (human); assay: as above
[17] = biological target: V-0041 (…)/HLA-E 01:03 monomer complex (human); assay: as above
[18] = biological target: V-0045 (…)/HLA-E 01:03 monomer complex (human); assay: as above
[19] = biological target: V-0021 (…)/HLA-E 01:03 monomer complex (human); assay: as above
[20] = biological target: V-0042 (…)/HLA-E 01:03 monomer complex (human); assay: as above
[21] = biological target: V-0038 (…, Hsp60)/HLA-E 01:03 monomer complex (human); assay: as above
[22] = biological target: V-0046 (…)/HLA-E 01:03 monomer complex (human); assay: as above
[23] = biological target: T4, HLA-G on cell lines that express HLA-G …; assay: flow cytometry, JEG3 stimulated with IFNγ (FIG. 25A of the legend)
[24] = biological target: V-0038 (…, Hsp60) pulsed on K562 cells expressing HLA-E (human, UniProt P13747 22-358; P61769 21-119); assay: flow cytometry, peptide-pulsed K562.E cells, antibody molecules per cell
[25] = biological target: V-0046 (…) pulsed on K562 cells expressing HLA-E (human, UniProt P13747 22-358; P61769 21-119); assay: as above
[26] = biological target: V-0035 (…) pulsed on K562 cells expressing HLA-E (human, UniProt P13747 22-358; P61769 21-119); assay: as above
[27] = biological target: V-0040 (…) pulsed on K562 cells expressing HLA-E (human, UniProt P13747 22-358; P61769 21-119); assay: as above
[28] = biological target: T1, V-0034 (…) pulsed on K562 cells …; assay: as above
[29] = biological target: V-0021 (…) pulsed on K562 cells expressing HLA-E (human, UniProt P13747 22-358; P61769 21-119); assay: as above
[30] = biological target: V-0042 (…) pulsed on K562 cells expressing HLA-E (human, UniProt P13747 22-358; P61769 21-119); assay: as above
[31] = biological target: V-0045 (…) pulsed on K562 cells expressing HLA-E (human, UniProt P13747 22-358; P61769 21-119); assay: as above
[32] = biological target: V-0044 (…) pulsed on K562 cells expressing HLA-E (human, UniProt P13747 22-358; P61769 21-119); assay: as above
[33] = biological target: T2, P-0550 (…, PODXL2) pulsed on K562 cells …; assay: as above
[34] = biological target: V-0043 (…) pulsed on K562 cells expressing HLA-E (human, UniProt P13747 22-358; P61769 21-119); assay: as above
[35] = biological target: V-0041 (…) pulsed on K562 cells expressing HLA-E (human, UniProt P13747 22-358; P61769 21-119); assay: as above
[36] = biological target: V-0037 (…) pulsed on K562 cells expressing HLA-E (human, UniProt P13747 22-358; P61769 21-119); assay: as above

HLA-E on cells that do not present the HLA-G signal peptide (unpulsed K562.E cells; HLA-E positive, HLA-G negative cells; Tap-1 knock-out cells) (human), sequence (P13747 22-358): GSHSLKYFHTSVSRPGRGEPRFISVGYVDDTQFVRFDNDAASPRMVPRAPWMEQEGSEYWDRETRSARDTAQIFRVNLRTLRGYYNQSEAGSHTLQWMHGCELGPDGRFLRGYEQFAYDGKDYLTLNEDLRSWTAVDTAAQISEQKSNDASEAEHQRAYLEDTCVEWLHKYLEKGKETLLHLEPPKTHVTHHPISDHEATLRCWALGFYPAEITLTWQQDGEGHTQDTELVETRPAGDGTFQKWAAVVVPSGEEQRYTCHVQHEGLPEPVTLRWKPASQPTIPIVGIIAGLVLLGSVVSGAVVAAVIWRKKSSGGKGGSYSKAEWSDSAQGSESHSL

## mIgG1 (antibody)
[1]
  % of cells in Q3 (HLA-E channel +, Fab-scFv-Fc -): 0.37
[2]
  % of cells in Q3 (HLA-E channel +, Fab-scFv-Fc -): 0.39

## anti-HLA-E antibody clone 3D12
[3]
  EC50 (read off the curve): 7 ng/mL

B1: ABX0011 (antibody, V domains shown)
VH: EVQLLESGGGLVQPGGSLRLSCAASGFTFSSYAMSWVRQAPGKGLEWVSTIAYGGGATAYADSVKGRFTISRDNSKNTLYLQMNSLRAEDTAVYYCAKGLSNFDYWGQGTLVTVSS
VL: DIQMTQSPSSLSASVGDRVTITCRASQSISSYLNWYQQKPGKAPKLLIYAASSLQSGVPSRFSGSGSGTDFTLTISSLQPEDFATYYCQQAAAYPSLFGQGTKVEIK
notes: also called ABX-11; R2-C02 as hIgG1
[4]
  binding result: no binding (tested: 10 µg/mL)
[5]
  binding result: no binding (tested: 10 µg/mL)
[6]
  EC50 (read off the curve): ~50 ng/mL
[7]
  binding result: no binding (tested: 1 ug/ml)
[8]
  binding result: no binding (tested: 1 ug/ml)
[9]
  binding result: no binding (tested: 1 ug/ml)
peptide-empty HLA-E
  binding result: no binding (tested: 1 µg/ml)
[10]
  binding result: no binding (tested: 1 µg/mL)
[11]
  EC50 (read off the curve): ~1 ng/mL
[12]
  Kd: 7.9 nM
[13]
  binding result: no binding (tested: 1 ug/ml)
[14]
  binding result: no binding (tested: 1 ug/ml)
[15]
  binding result: no binding (tested: 1 ug/ml)
[16]
  binding result: no binding (tested: 1 ug/ml)
[17]
  binding result: no binding (tested: 1 ug/ml)
[18]
  binding result: no binding (tested: 1 ug/ml)
[19]
  binding result: no binding (tested: 1 ug/ml)
[20]
  binding result: no binding (tested: 1 ug/ml)
[21]
  binding result: no binding (tested: 1 ug/ml)
[22]
  binding result: no binding (tested: 1 ug/ml)

B2: ABX0012 (ABX0011 with mouse IgG1) (antibody, V domains shown)
VH: B1 VH
VL: DIQMTQSPSSLSASVGDRVTITCRASQSISSYLNWYQQKPGKAPKLLIYAASSLQSGVPSRFSGSGSGTDFTLTISSLQPEDFATYYCQQAAAYPSLFGQGTKVEIKR
notes: also called ABX012; AB0012
[23]
  binding result: no binding
[24]
  binding result: no binding
[25]
  binding result: no binding
[26]
  binding result: no binding
[27]
  binding result: no binding
[28]
  binding result: no binding
[29]
  binding result: no binding
[30]
  binding result: no binding
[31]
  binding result: no binding
[32]
  binding result: no binding
[33]
  binding result: no binding
[34]
  binding result: no binding
[35]
  binding result: no binding
[36]
  binding result: no binding
